The record followed here is patent US20160304621A1.

The target of test [1] is recombinant human HER2 protein HER2-ECD with His-tag (human) (UniProt P04626). Description: ELISA on coated HER2-ECD, average of 3 independent assays, single site fit. Background: In an ELISA, binding on a coated surface is turned into a signal by an enzyme label.
Test [2] has the same target. Nature of the test: ELISA on coated HER2-ECD, 11-point dilution from 1000 ng/ml.

Sequence of RC48-vc-MMAF (VH): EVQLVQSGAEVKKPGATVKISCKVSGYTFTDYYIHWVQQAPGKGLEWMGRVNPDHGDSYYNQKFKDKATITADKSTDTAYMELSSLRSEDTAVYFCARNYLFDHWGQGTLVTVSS
Sequence of RC48-vc-MMAF (VL): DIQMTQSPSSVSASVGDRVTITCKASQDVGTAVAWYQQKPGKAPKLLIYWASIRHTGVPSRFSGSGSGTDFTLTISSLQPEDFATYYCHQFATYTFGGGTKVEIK
Sequence of RC48-vc-MMAE (VH): as the sequence (VH) above
Sequence of RC48-vc-MMAE (VL): as the sequence (VL) above
Sequence of humanized anti-HER2 antibody RC48 (VH): as the sequence (VH) above
Sequence of humanized anti-HER2 antibody RC48 (VL): as the sequence (VL) above

For human-murine chimeric antibody cRC48, in test [1], the Kd worked out at 0.077 nM.

On to RC48-vc-MMAF, for which, in test [2], the Affinity was found to be 3.35 ng/mL and the Molar equivalent was found to be 13.5 pmol/L.

Turning to RC48-vc-MMAE, in test [2], the Affinity came out at 2.24 ng/mL and the Molar equivalent is 15.2 pmol/L.

For humanized anti-HER2 antibody RC48, in test [1], the Kd was 0.044 nM.

In general, Kd refers to the free concentration of one partner at which half of the binding sites on the other are occupied at equilibrium, for simple one-to-one binding.
